Common to all, as to conditions: FMN input: 0 or 200 uM; Eterna round: R93 (includes R88 designs)
For data set [1], the system named is MS2 coat protein. Description: apparent KD of MS2 coat protein, switch ON state; designed switch direction (-1 OFF switch, 1 ON switch): 1; higher = weaker reporter binding. Put shortly: (§1)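 Apparent KD is reported per design as the median of normalised binding-curve fits across its clusters. The RNA switches were made by on-chip transcription from Illumina sequencing clusters. SNAP-549-labelled MS2 coat protein was then added in twofold steps (0.7 or 1.5 nM to 3 µM; 0.8–1.5 h to 10–20 min per step) in 100 mM Tris-HCl pH 7.5, 80 mM KCl, 4 mM MgCl2, without or with constant ligand.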

Data set [2] concerns MS2 coat protein. Nature of the data set: apparent KD of MS2 coat protein, switch OFF state (with FMN for OFF switches, without FMN for ON switches); designed switch direction (-1 OFF switch, 1 ON switch): 1; higher = weaker reporter binding. In short, it runs like this: as §1
Data set [3] has as its system MS2 coat protein. Description: apparent KD of MS2 coat protein, switch ON state; designed switch direction (-1 OFF switch, 1 ON switch): -1; higher = weaker reporter binding. Put shortly:
as §1

The subject of data set [4] is MS2 coat protein. Nature of the data set: apparent KD of MS2 coat protein, switch OFF state (with FMN for OFF switches, without FMN for ON switches); designed switch direction (-1 OFF switch, 1 ON switch): -1; higher = weaker reporter binding. Put shortly: as §1

As for “AACAAUCUAUCUGAGGAUAUGUGUCGAAAGACAUGAGGAUCACCCAUGUAAAAACAUGGGAAGAUACAGAAGGCAGAUAGAUUGA [SS2: 1161]”, the “apparent KD of MS2 coat protein” value in the data set on MS2 coat protein [1] was determined as 203 nM; with MS2 coat protein [2], 29.3 nM.
In the case of “UUAAGCCACGGGCAGGAUAUGUAUUAAAAUACAUGAGGAUCACCCAUGUGCAGGUGUAACACCUGACAGAAGGGCCAAUCGCGGC [Soondi]”, the “apparent KD of MS2 coat protein” value in the data set on MS2 coat protein [1] was 21.5 nM; with MS2 coat protein [2], 241 nM.
Taken in the same sequence, the figures for “AAAAAACAUGAGGAUCACCCAUGUCCUCGGACGUGAGGAUAUGUACAGACUUCGGUCUGUACAGAAGGCACAAAAA [SS1 - 1034]” were 1240 nM and 333 nM.
Consider “AAAAACAUGGUGUAGGAUAUAUUAAUAGUCACAUGAGGAUCACCCAUGUUCAUAUAUAUGAACGAGUAGAAGGACGAUGAAAAAA [Mat - Same state - Malcolm Mod - D108]”, for which the “apparent KD of MS2 coat protein” value is 244 nM in the data set with MS2 coat protein [1] and 237 nM in the data set on MS2 coat protein [2].
For “AAAAAACAUGAGGAUCACCCAUGUGAGAACAUGGGAGGAUAUACGAGGACGAGAGUCAGAGUAGAAGGCCUAAAAA [Garnet 66]” the same measures were 161 nM and 51.7 nM.
In the case of “AAGAAACAUGAGGAUCACCCAUGUGAGAUAAACACAGGAUAUGCGAAAAGAAAUAAAGAAGCAGAAGGGUGAAGAA [Mat - Same State 1 - Tesla mod - 71]”, the “apparent KD of MS2 coat protein” value with MS2 coat protein [1] is 20.5 nM; with MS2 coat protein [2], 94.1 nM.
Taken in the same sequence, the figures for “AACAAUCUAUCUGAGGAUAUGUGUCAAAAGACAUGAGGAUCACCCAUGUAAAAACAUGGAAAAACACAGAAGGCAGAUAGAUUGA [SS2: 1149]” were 62.1 nM and 75.4 nM.
For “AUAAAAUAAAGUCAGGAUAUCCAUAAUAAAACAUGAGGAUCACCCAUGUUAAAAAAAAGAUCAUGGGAGAAGGGACAAAAUAAAU [SS2 M 33]” the same measures were 28.6 nM and 57.6 nM.
Taken in the same sequence, the figures for “CGGAGACAUGAGGAUCACCCAUGUGAGAAGAGGCGAGGAUAUCGAAAAAAAAAAAAAAAACGAGAAGGCGCGAGAC [salish99-SS1-011]” were 28.5 nM and 51.4 nM.
With “AUAAUAUUAAGCUAGGAUAUACUAAAGUAAACAUGAGGAUCACCCAUGUAAAAAAAAAAACUCAUGUAGAAGGAGCAUAAAUAAA [moonwalk 9]”, the “apparent KD of MS2 coat protein” value in the data set with MS2 coat protein [1] amounted to 12.2 nM; with MS2 coat protein [2], 15 nM.
Take “AAAAAGUGAUGGUAGGAUAUUGGAAAAGCCACAUGAGGAUCACCCAUGUCAAAAAACCUAAAAAACAAGAAGGGCUGUUAUAAAAA [Same State 2.2]”: the “apparent KD of MS2 coat protein” value worked out at 18.6 nM in the data set on MS2 coat protein [1] and 24.7 nM in the data set on MS2 coat protein [2].
For “CGGAGACAUGAGGAUCACCCAUGUGAGAAGAGGCGAGGAUAUCGAAAGAAAGAAGAGAAACGAGAAGGCGCGAGGA [salish99-SS1-067]” the same measures were 22.7 nM and 38.8 nM.
Taken in the same sequence, the figures for “UAAAUACAUGAGGAUCACCCAUGUCAAGAGUAUUAAGGAUAUGAACCAGGGAACUGGCAGUCAGAAGGUGAGACUC [Ququeddi]” were 235 nM and 65.2 nM.
For “AAGAAAGAAACAUAGGAUAUCAAGAAUAUAACAUGAGGAUCACCCAUGUAAAUACGAAAGUAUAAUGAGAAGGAUGGAUGAUCUUC [Mat - Mod of Meechl]”, the “apparent KD of MS2 coat protein” value in the data set on MS2 coat protein [1] is 24.3 nM; in the data set on MS2 coat protein [2], 34.5 nM.
With “AGAAAACAUGAGGAUCACCCAUGUAGAAAUAUGGGAGGAUAUACAAGGACGAAAGUCAAGGUAGAAGGCCUAAAGA [Mat - Same State 1 - Meechl mod - D127]”, the “apparent KD of MS2 coat protein” value amounted to 22.8 nM in the data set with MS2 coat protein [1] and 88.4 nM in the data set on MS2 coat protein [2].
“AAAAAACAUGAGGAUCACCCAUGUCAAAAGACAUGAGGAUAUGUACAGACUUCGGUCUGUACAGAAGGCAUGAAAA [SS1 - 1011]”: the “apparent KD of MS2 coat protein” value was determined as 31.6 nM in the data set with MS2 coat protein [1] and 524 nM in the data set on MS2 coat protein [2].
For “AAAGAAAAACUAGAGGAUAUCUGAAUGGUAACAUGAGGAUCACCCAUGUGAAGAAAGGAACAUGAGGAGAAGGCUAGAAGAAAAA [JL Nando mod 17]”, the figures for the “apparent KD of MS2 coat protein” value with MS2 coat protein [1] and in the data set on MS2 coat protein [2] were 11.4 nM and 35.4 nM, respectively.
For “AAAAAAAAAGUAGAGGAUAUCCAAAUGGCUACAUGAGGAUCACCCAUGUGAAGAAAAGCACAUGAGGAGAAGGCUACAAAAAAAAA [Blender bender]” the same measures were 12.1 nM and 21.7 nM.
Turning to “AAUCCAAAUAGUUAGGAUAUGGGAAUUAAGACAUGAGGAUCACCCAUGUAAUUAAAACAAGUUAACCAGAAGGGACAGGGUGAAA [JR_SS002_Sub207]”, the “apparent KD of MS2 coat protein” value amounted to 160 nM in the data set with MS2 coat protein [1] and 112 nM in the data set on MS2 coat protein [2].
Taken in the same sequence, the figures for “AAAAAACAUGAGGAUCACCCAUGUCAAAAGACGUGAGGAUAUGUACAGACUUCGGUCUGUACAGAAGGCACGUCAA [SS1 - 1043]” were 15.9 nM and 20.4 nM.
On to “AUGGUCAAGUGUGAGGAUAUCCAGGCUCCCACAUGAGGAUCACCCAUGUUUAUUAGAGCGUAAAGGGAGAAGGUACGAACGCCAU [Esbibiti]”, for which the results for the “apparent KD of MS2 coat protein” value in the data set with MS2 coat protein [1] and in the data set with MS2 coat protein [2] were 15.6 nM and 26.9 nM, respectively.
Taken in the same sequence, the figures for “GAAAAACAUGAGGAUCACCCAUGUGAUAACAUGGGAGGAUAUACAUGGACGAUAGUCAAAGUAGAAGGCCUAAAAG [Garnet 62]” were 104 nM and 32.1 nM.
For “AAUAUAUUAAGUGAGGAUAUCAAGAAAAAAACAUGAGGAUCACCCAUGUGGGAAACAUGGUAGGGUGAGAAGGUACUUAAUAUAU [Samwise Clockwise 21 - Jieux - Same State 2]”, the “apparent KD of MS2 coat protein” value in the data set on MS2 coat protein [1] was determined as 228 nM; in the data set with MS2 coat protein [2] it was 691 nM.
Taken in the same sequence, the figures for “CCGAUGGUAUACUAGGAUAUGGGCGCCCUUACAUGAGGAUCACCCAUGUUUACACAAAUCCGCGGCCAGAAGGAGUUCAUGGGAG [Orgere]” were 90.3 nM and 163 nM.
With “GGAUGGGAAGGAUAUACAUGAGGAUCACCCAUGUGAGAGAAAAAAGUGAGAAAGAAAAGUAGAAGGUCUUGUCG [salish99-ex3-85]”, the figures for the “apparent KD of MS2 coat protein” value in the data set with MS2 coat protein [3] and in the data set on MS2 coat protein [4] were 82.5 nM and 99.1 nM, respectively.
For “AAACCACAUGAGGAUCACCCAUGUCAGGAUAUGCUAUGGAAAAUAAAAAUAAAACAUAGCAGAAGGGACAAAAA [Denovo 6]” the same measures were 37.2 nM and 66 nM.
For “AUAAACAGAGGAUAUACGCAAAUAAAAGAAAAUAAAGAAACACAUGAGGAUCACCCAUGUAGAAGGCUGGAAAA”, the “apparent KD of MS2 coat protein” value in the data set on MS2 coat protein [3] was determined as 21.1 nM; in the data set on MS2 coat protein [4] it was 16.7 nM.
Take “AAAAAACAUGAGGAUCACCCAUGUGAGGAUAUCUGUAUCCAAAAGGAAGUGUAGGAUCAGAGAAGGCACUAGGA [Power strip]”: the “apparent KD of MS2 coat protein” value is 40.1 nM with MS2 coat protein [3] and 83.8 nM in the data set with MS2 coat protein [4].
For “AAGAACUGAGGAUAUACAAAAUAAAAGAAAAGAAAGAAAGAACAUGAGGAUCACCCAUGUAGAAGGCGGAAGAA [Wahibre Ibiau]” the same measures were 29.4 nM and 29.1 nM.
For “AAGAAACAUGAGGAUCACCCAUGUCAGGAUAUCCAAAAGAAAAGAAAAGAAAGAAGAAGGAGAAGGGACAAAGG [Neferkamin Anu]”, the “apparent KD of MS2 coat protein” value in the data set with MS2 coat protein [3] was determined as 31 nM; with MS2 coat protein [4] it was 40.6 nM.
Take “AAAUUGUCAGGAUAUCGUAGAACUCUAAAAUAGAGGAGCUACGAGAAGGGACAUGAGGAUCACCCAUGUAAAAC [May 88]”: the “apparent KD of MS2 coat protein” value in the data set on MS2 coat protein [3] was 56.2 nM; with MS2 coat protein [4], 68.4 nM.
For “GAGAGACAUGAGGAUCACCCAUGUGAGGAUAUCGGGAGGAGGAGGAGGAGGAGGAGGACGAGAAGGCACGGAAG [salish99-Ex1-06]” the same measures were 21.6 nM and 35.3 nM.
Taken in the same sequence, the figures for “AAGAAGUAAGGAUAUACAAAAUAAAAGAAAAGAAAGAAAGAACAUGAGGAUCACCCAUGUAGAAGGUACAAGAA [Sankhkare Mentuhotep III]” were 38.1 nM and 19.6 nM.
Taken in the same sequence, the figures for “CUCUAGUCAGGAUAUUCAAGAAAAGAAAAGAAAGAAAAGAAGAAGAAGGGACAUGAGGAUCACCCAUGUAAGAA [EteRNA is fun!]” were 46.7 nM and 46.5 nM.
On to “AGAAUACAUGAGGAUCACCCAUGUGAGGAUAUGCAAAUAAAAAUAAAAUAAAAUAAAUGCAGAAGGCACGAAAG [EX 1 May 22]”, for which the “apparent KD of MS2 coat protein” value came to 35.9 nM in the data set on MS2 coat protein [3] and 58.2 nM in the data set with MS2 coat protein [4].
Taken in the same sequence, the figures for “AAAAAACAUGAGGAUCACCCAUGUUAGGAUAUUCCUAAAAAAAAAAAAAAAAAAAAUGGAAGAAGGAACAAAAA [excalibur10]” were 23.5 nM and 30.2 nM.
With “AGGAAACAUGAGGAUCACCCAUGUCAGGAUAUUGGAAAGAAAAGAAAAGAAAGAAGAAUAAGAAGGGACAAGAA [Hor-Aha]”, the “apparent KD of MS2 coat protein” value with MS2 coat protein [3] is 38.7 nM; with MS2 coat protein [4], 25.1 nM.
Take “AACAUGUAAGGAUAUCCAAGAAAAGAAAAGAAAGAAAAGAAGGAGAAGGUACAUGAGGAUCACCCAUGUAAGAA [EteRNA is fun!]”: the “apparent KD of MS2 coat protein” value in the data set with MS2 coat protein [3] was 21.6 nM; in the data set on MS2 coat protein [4], 18.9 nM.
As for “UUUCACCUAGGAUAUACAUGAGGAUCACCCAUGUGAGGCGAAGGACGGAGGGAUGGUAGUAGAAGGAGGACAAG [Mod of Gedier]”, the results for the “apparent KD of MS2 coat protein” value in the data set on MS2 coat protein [3] and with MS2 coat protein [4] were 19.5 nM and 21.6 nM, respectively.

Values taken from the supplement of paper PMC9170038.
